Assay results published in the nanobody polyreactivity screen of Harvey et al. (2022).

Assay: yeast display, Sf9 membrane polyspecificity reagent, FACS + sequencing; frameworks hold sequencing errors
How it was run: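 Genes from sorted yeast were amplified by colony PCR, read by MiSeq 2 × 250 sequencing and filtered on CDR length. These cells carried a synthetic nanobody library in Saccharomyces cerevisiae BJ5465 and were sorted by FACS into low and high (top ~1%) gates on anti-HA and streptavidin fluorescence. Polyreactivity is labelled according to the gate of origin.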

Sequence: QVQLVESGGGLVQAGGSLRLSCAASGRIFFPYDMGWYRQAPGKERELVAAITNSGGRTYYADSVKGRFTISRDNAKNTVYLQMNSLKPEDTAVYYCAARYGSGGDYWGQGTQVTVSS
- polyreactivity (PSR sort gate): low polyreactivity

Sequence: QVQLVESGGGLVQAGGSLRLSCAASGRIFFRYAMGWSRQAPGKEREFVATITWSGGRTHYADSVKGRFTISRDNAKNTVYLQMNSLKPEDTAVYYCAASYHRYAFDYWGQGTQVTGSS
- polyreactivity (PSR sort gate): high polyreactivity

Sequence: QVQLVESGGGLVQAGGSLRLSCAASGRIFFTNAMGWYRQAPGKERELVAAISKSGARTYYADSVKGRFTISRDNAKNTVYLQMNSLKPEDTAVYYCAADVSVSGYGYWGQGTQVTVSS
- polyreactivity (PSR sort gate): high polyreactivity

Sequence: QVQLVESGGGLVQAGGSLRLSCAASGRIFFTNAMGWYRQAPGKERELVATISSSDGSTYYADSVKGRFTISRDNAKNTVYLQMNSLNPEDTAVYYCAALYSFRGSRQYTYKYYYWGQGTQVTVSS
- polyreactivity (PSR sort gate): high polyreactivity

Sequence: QVQLVESGGGLVQAGGSLRLSCAASGRIFFTYAMGWSRQAPGKERELVAAISWSGGGTYYADSVKGRFTISRDNAKNTVYLQMNSLKPEDTAVYYCAADNTILFDYWGQGTQVTVSS
- polyreactivity (PSR sort gate): low polyreactivity

Sequence: QVQLVESGGGLVQAGGSLRLSCAASGRIFFVNAMGWYRQAPGKERELVAAISRGGTTYYADSVKGRFTISRDNAKNTVYLQMNSLKPEDTAVYYCNVAYTPSFYRYDYWGQGTQVTVSS
- polyreactivity (PSR sort gate): low polyreactivity

Sequence: QVQLVESGGGLVQAGGSLRLSCAASGRIFFVNAMGWYRQAPGKERELVAAISSGGSTNYADSVKGRFTISRDNAKNTVYLQMNSLKPEDTAVYYCASSHYRYGTQGYDYWGQGTQVTVSS
- polyreactivity (PSR sort gate): low polyreactivity

Sequence: QVQLVESGGGLVQAGGSLRLSCAASGRIFFVYAMGWYRQAPGKERELVAAITSSGGGTYYADSVKGRFTISRDNAKNTVYLQMNSLKPEDTAVYYCATRYPYRPGYEYWGQGTQVTVSS
- polyreactivity (PSR sort gate): low polyreactivity

Sequence: QVQLVESGGGLVQAGGSLRLSCAASGRIFFVYAMGWYRQAPGKERELVAGIRSSGGSTYYADSVKGRFTISRDNAKKTVYLQMNSLKPEDTAVYYCAARRVGYPSPYSTYGMYYWGQGTQVTVSS
- polyreactivity (PSR sort gate): high polyreactivity

Sequence: QVQLVESGGGLVQAGGSLRLSCAASGRIFFVYAMGWYRQAPGKERELVAGIRSSGGSTYYADSVKGRFTISRDNAKNTVYLQMNSLKPEDTAVYYCAARRVGYPSPYSTYGMYYWGQGTQVTVSS
- polyreactivity (PSR sort gate): high polyreactivity

Sequence: QVQLVESGGGLVQAGGSLRLSCAASGRIFFYNDMGCYRQAPGKERELVASISSGTSTYYADSVKGRFTISRDNAKNTVYLQMNSLKPEDTAVYYCATGRPWHYSSATYDYWGQGTQVTVSS
- polyreactivity (PSR sort gate): low polyreactivity

Sequence: QVQLVESGGGLVQAGGSLRLSCAASGRIFFYNGMGWYRQAPGKERELVAAINRSGGSTYYADSVKGRFTISRDNAKNTVYLQMNSLKPVDTAVYYCNAASFTVPMDFWGQGTQVTVSS
- polyreactivity (PSR sort gate): low polyreactivity

Sequence: QVQLVESGGGLVQAGGSLRLSCAASGRIFFYNTKGWYRQAPGKERELVAVISSSDGSTYADSVKGRFTISRDNAKNTVYLQMNSLKPEDTAVYYCNAGWTRYVPYVRMDYWGHGTQVTVSS
- polyreactivity (PSR sort gate): high polyreactivity

Sequence: QVQLVESGGGLVQAGGSLRLSCAASGRIFFYYAMGWYRQAPGKERELVAAISSGGGSTYYADSVKGRFTISRDNAKNTVYLQMNSLKPEDTAVYYCAARTYRRRYLGWSQYVGPYDYWGQVTQVTVSS
- polyreactivity (PSR sort gate): high polyreactivity

Sequence: QVQLVESGGGLVQAGGSLRLSCAASGRIFGAYAKGWYRQAPGTERELVAAISGSGGSTSYADSVKGRFTISRDNAKNTVYLQMNSLKPEDTAVYYCNAVSYVDIWDDRRYYYWVQGTQVTVSS
- polyreactivity (PSR sort gate): low polyreactivity

Sequence: QVQLVESGGGLVQAGGSLRLSCAASGRIFGAYAMGWYRQAPGKERELVAAITQSGGSTFYADSVKGRFTISRDNAKNTVYLQMNSLKPEDTAVYYWGQGTQVTVSS
- polyreactivity (PSR sort gate): low polyreactivity

Sequence: QVQLVESGGGLVQAGGSLRLSCAASGRIFGAYAMGWYRQAPWKERELVAAITSRGGNTYYADSVKGRFTISRDNAKNTVYLQMNSLKPEDTAVYYCAARHDKRRQYYVGQSAFDYWGQGTQVTVSS
- polyreactivity (PSR sort gate): low polyreactivity

Sequence: QVQLVESGGGLVQAGGSLRLSCAASGRIFGAYTMGWYRQAPGKEREFVAAITQSGGSTYYADSVKGRFTISRDNAKNTVYLQMNSLKPEDTAVYYCAATRYVLVGWRYAVWYDYWGQGTQVTVSS
- polyreactivity (PSR sort gate): high polyreactivity

Sequence: QVQLVESGGGLVQAGGSLRLSCAASGRIFGDNAMGWSRQAPGKEWELVAAITVNAGSTHYAASVKGRFTISRDNAKNTVYLQMNSLKPEDTAVYYCAKQTAPVTGVGPYFYWGQGTQVTVSS
- polyreactivity (PSR sort gate): low polyreactivity

Sequence: QVQLVESGGGLVQAGGSLRLSCAASGRIFGDYAMGWYRQAPGKERELVADITWSGGSTYYADSVKGRFTISRDNAKNTVYLQMNSLKPEDTAVYYCNADYDGGYYGDLSLYDYWGQGSQVTVSS
- polyreactivity (PSR sort gate): low polyreactivity

Sequence: QVQLVESGGGLVQAGGSLRLSCAASGRIFGDYGMGWYRQAPGKERELVAAITDRGGTTYYADSVKGRFTISRDNAKNTVFLQMNSLKPEDTAVYYCNARQSDIFDYDYWGKGTQVTVSS
- polyreactivity (PSR sort gate): low polyreactivity

Sequence: QVQLVESGGGLVQAGGSLRLSCAASGRIFGENALGWYRQAPGKEREFVAVISISDASTYYADSVKGRFTISRDNAKNTVYLQMISLKPEDTAVYYCAAELTDFLYVASDYWGQGTQVTVSS
- polyreactivity (PSR sort gate): low polyreactivity

Sequence: QVQLVESGGGLVQAGGSLRLSCAASGRIFGENAMGWYRQAPGKERELVAAITWSGTSTYYADSVKGRFTISRDNAKNTVYLQMNSLKPEDTAVDYCAASATLFSSRGKRYYWGQGTQVTVSS
- polyreactivity (PSR sort gate): low polyreactivity

Sequence: QVQLVESGGGLVQAGGSLRLSCAASGRIFGEYAMGWYRQAPGKERELVAAISGGGSTYYADSVKGRFTISRDNAKNTVYLQMNSLKPEETAVYYCAVYSVYHEYDYWGHGTQVTVSS
- polyreactivity (PSR sort gate): low polyreactivity

Sequence: QVQLVESGGGLVQAGGSLRLSCAASGRIFGFYAMGWSRQAPGKERELVPGITGSGDGTYADSVKGRFTISRDNAKNTVYLQMNSLKPEDTAVYYCAADYAVGKHWRYGTYRGHYWGQGTQVTVSS
- polyreactivity (PSR sort gate): low polyreactivity

Sequence: QVQLVESGGGLVQAGGSLRLSCAASGRIFGGNAMGWYRPAPGKERELVAAISKRGGSTYYADSVKGRFTISRDNAKNTVYLQMNSLKPEDSAVYYCAATAYADQGLDYGYWGQGTQVTVSS
- polyreactivity (PSR sort gate): high polyreactivity

Sequence: QVQLVESGGGLVQAGGSLRLSCAASGRIFGGNAMGWYRQAPGKERELVAAISRNGGRTYYADSVKGRFTISRDNEKNTVYLQKNSLKPEDTAFYYCNAGYKEPHYYYWGQGTQVTVSS
- polyreactivity (PSR sort gate): high polyreactivity

Sequence: QVQLVESGGGLVQAGGSLRLSCAASGRIFGGNAMGWYRQAPGKERELVAAITTRGGSTYADSVKGRFTISRDNAKNTVYLQMNSLKPEDTAVYYCNKRYVIRRRGYDYWGQGTQVTVSS
- polyreactivity (PSR sort gate): low polyreactivity

Sequence: QVQLVESGGGLVQAGGSLRLSCAASGRIFGGNTMGWYRQAPGKERELVAAITSGGSTTYADSVKGRFTISRDNAKNTVYLHMNSLKPEDSEVYYCAARYVYPHQWTPYIRPYDYWGQGTQVTVSS
- polyreactivity (PSR sort gate): low polyreactivity

Sequence: QVQLVESGGGLVQAGGSLRLSCAASGRIFGGNVMGWNRQATWKERELVAFITRGTRTNYADSVKGRFTISRDNAKNTVYLQMNSLKPEDNAVFYCAADSRNSRQHTSYNSLNYWGQGTQVTVSS
- polyreactivity (PSR sort gate): high polyreactivity

Sequence: QVQLVESGGGLVQAGGSLRLSCAASGRIFGGYAMGWYRQAPGKERELVAAISSRGGSTYYADSVKGRFTISRDNAKNTVYLQMNSLNPEDTAVYYCARTKYGRYRYGEYDYWGQGTQVTVSS
- polyreactivity (PSR sort gate): high polyreactivity

Sequence: QVQLVESGGGLVQAGGSLRLSCAASGRIFGGYAMGWYRQAPGKERELVAAISWRGGTTYYADSVKGRFTISRDNAKNTVYLQMNSLKQEDTAVYYCNADVVRYRHWHRGDYWGQGTQVTVSS
- polyreactivity (PSR sort gate): low polyreactivity

Sequence: QVQLVESGGGLVQAGGSLRLSCAASGRIFGGYAMGWYRQAPGKERELVAAITSAGGTNYADSVKGRFTISRDNAKNTVYLQMNSLKPEDTAVYYCAALRDRDITVYYDTGRMYYWGQGTQVTVSS
- polyreactivity (PSR sort gate): low polyreactivity

Sequence: QVQLVESGGGLVQAGGSLRLSCAASGRIFGGYAMGWYRQAPGKERELVATITANGGRTRYADSVKGRFTISRDNAKNTVYLQMNSLKPEDTAVYYCARVYYSSSGYGYWGQGTQVTVSS
- polyreactivity (PSR sort gate): high polyreactivity

Sequence: QVQLVESGGGLVQAGGSLRLSCAASGRIFGGYAMGWYRQAPGKERELVAVITDGGSTNYADSVKGRFTISRDNAKNTVYLQMNSLKPEDTAVYYCAADDRIYPRGYDKMDYWGQGTQVTVSS
- polyreactivity (PSR sort gate): low polyreactivity

Sequence: QVQLVESGGGLVQAGGSLRLSCAASGRIFGGYTMGSYRQAPGKERELVAAITRSDGSTTYADSVKGRFTISRDNAKNTVSLQMNSMKPEDTAVYYCAAPRASGYYWGQCTQVTVSS
- polyreactivity (PSR sort gate): high polyreactivity

Sequence: QVQLVESGGGLVQAGGSLRLSCAASGRIFGGYTMGWYRQAPGKEREFVATISRSSGSTYYADSVKGRFTISRDNAKNTVYLQMNSLKPEDTAVYYCAAVYLYATGYDYWGQGTQVTVSS
- polyreactivity (PSR sort gate): high polyreactivity

Sequence: QVQLVESGGGLVQAGGSLRLSCAASGRIFGGYTMGWYRQAPGNERELVAAINSGGSTYYADSVKGRFTISRDNAKITVYLQMNSLKPEDTAVYYCAKVRSYFGKYGYGYWGQGTQVTVSS
- polyreactivity (PSR sort gate): high polyreactivity

Sequence: QVQLVESGGGLVQAGGSLRLSCAASGRIFGGYVMGWYRQAPGKERELVAAISRRGGSTYYADSVKGRFTISRDNAKNTVYLQMNSLKPEDTAVYYCNVASFSYSYKFDYWGQGTQVTVSS
- polyreactivity (PSR sort gate): high polyreactivity

Sequence: QVQLVESGGGLVQAGGSLRLSCAASGRIFGHYAMGWYRQAPGKETELVASISWRGGRTYYADSVKGRFTISRDNAKNTVYLQMNSLKPEDTAVYYCAARVNYKPYADYYYWGQGTQVTVSS
- polyreactivity (PSR sort gate): high polyreactivity

Sequence: QVQLVESGGGLVQAGGSLRLSCAASGRIFGINARGWYRPAPGKERELVAAINWSGGSTYYADSVKGRFTISRDNAKNTVYLHMNSLKPEDTAVYYCAADFYRRYYRYGYWGQGTQVTVSS
- polyreactivity (PSR sort gate): high polyreactivity

Sequence: QVQLVESGGGLVQAGGSLRLSCAASGRIFGINVMGWYRQAPGKERELVARITGRGGRTYYADSVKGRFTISRDNAKNTVYLQMNSLKPEDTAVYYCAADARYEAYDYWGQGTQVTVSS
- polyreactivity (PSR sort gate): high polyreactivity

Sequence: QVQLVESGGGLVQAGGSLRLSCAASGRIFGIYAMGWYRQAPGKERELVASITGSSGSTNYADSVKGRFTISRDNAKNTVYLQMNSLKPEDTAVYYCAADIPSYYWWRAYDYWGQGTQVTVSS
- polyreactivity (PSR sort gate): low polyreactivity
